In patent publication US20130344073A1 (OMEROS, published 2013) one finds Kd data, which are given here for one molecule.

For this experiment, the target named is T1, human MASP-3 (human).
T1 construct: For selection and FACS it was full-length or a fragment, fused to an Fc domain or labelled with Dylight; also called MASP-3 antigen; rMASP-3
T1 chain: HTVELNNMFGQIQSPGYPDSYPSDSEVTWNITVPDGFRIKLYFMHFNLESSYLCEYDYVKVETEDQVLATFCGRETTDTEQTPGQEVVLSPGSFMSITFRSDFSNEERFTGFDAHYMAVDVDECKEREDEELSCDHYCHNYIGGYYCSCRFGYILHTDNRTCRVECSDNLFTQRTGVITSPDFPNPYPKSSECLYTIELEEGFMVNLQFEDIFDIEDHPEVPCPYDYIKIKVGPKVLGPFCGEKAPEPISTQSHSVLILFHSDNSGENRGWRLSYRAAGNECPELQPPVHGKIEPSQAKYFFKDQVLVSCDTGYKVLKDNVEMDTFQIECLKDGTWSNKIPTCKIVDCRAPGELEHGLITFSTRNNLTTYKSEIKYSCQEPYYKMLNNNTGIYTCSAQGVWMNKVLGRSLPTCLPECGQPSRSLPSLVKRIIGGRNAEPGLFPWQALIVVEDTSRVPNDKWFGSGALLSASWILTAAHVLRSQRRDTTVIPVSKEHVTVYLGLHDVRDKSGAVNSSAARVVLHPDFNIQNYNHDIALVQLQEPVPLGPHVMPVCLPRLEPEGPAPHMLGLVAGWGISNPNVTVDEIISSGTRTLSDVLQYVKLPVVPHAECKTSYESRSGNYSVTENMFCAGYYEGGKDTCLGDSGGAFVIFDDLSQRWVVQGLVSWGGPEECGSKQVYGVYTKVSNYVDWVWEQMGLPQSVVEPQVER
The experiment can be described thus: saturation binding; DTLacO cells expressing the antibody stained with various concentrations of fluorescent-labeled soluble antigen. An excerpt: Recombinant antibodies were generated by cloning PCR-amplified V regions into a vector that supported expression of human IgG1 in 293F cells (Yabuki et al., PLoS ONE, 7(4):e36032 (2012)).

B1: MASP-3 specific clone M3J5 (antibody, V domains shown)
VH: AVTLDESGGGLQTPGGGLSLVCKASGFTFSSYAMGWMRQAPGKGLEYVAGIRSDGSFTLYATAVKGRATISRDNGQSTVRLQLNNLRAEDTATYFCTRSGNVGDIDAWGHGTEVIVSS
VL: ALTQPASVSANPGETVKITCSGGYSGYAGSYYYGWYQQKAPGSAPVTLIYYNNKRPSDIPSRFSGSLSGSTNTLTITGVRADDEAVYFCGSADNSGAAFGAGTTLTVL
notes: Chicken V regions; recombinant form is chimeric with human IgG1 and lambda constant regions; also called Clone 5; DTLacO clone M3J5
B1: the Kd (usually the free concentration of one partner at which half of the binding sites on the other are occupied at equilibrium, for simple one-to-one binding) is roughly 31 nM.
